In US20140256820A1, “THERAPEUTIC AGENT FOR BLOOD-BRAIN BARRIER DISRUPTION SYNDROME” (FUKUOKA UNIVERSITY, priority 2010, published 2014):

Test system: rat brain endothelial cells: RBECs
Type: cell-based
Protocol: Thus, a “t-PA-induced BBB dysfunction model” was prepared by the loading of ischemia and t-PA onto an in vitro BBB model. […] The resulting sample was left for 48 hours under 95% N2/5% CO2 (ischemia) conditions. Then, the permeability test was conducted.

t-PA: tissue plasminogen activator, a thrombolytic drug for cerebral infarction; t-PA injection (Activacin; Kyowa Hakko Kirin Co., Ltd.)
permeability of albumin (Evans blue-albumin: EBA) on loading of t-PA under ischemic conditions: increased the permeability | permeability of fluorescein sodium on loading of t-PA under ischemic conditions: increased the permeability
